Assay results reported in patent publication US20160184441A1, “PROLAMIN-BASED FILM AND METHOD FOR MANUFACTURING PROLAMIN-BASED ORAL FILM FOR PROTECTING ACTIVITY OF ANTI-OXIDATIVE MATERIAL” (SEHABIO CO., LTD., priority 2014, published 2016).

What was measured:
catalase [1] = test: Catalase activity in the stomach condition (HCl pH 1.3, with or without pepsin); format: biochemical; settings: pH 1.3, 20 minutes, pepsin-treated or pepsin-untreated (FIG. 5, FIG. 6)
Experimental: (§1) In the prolamin-based film for oral delivery containing catalase, the activity of catalase was measured by checking the decomposition rate of hydrogen peroxide (H2O2). The activity of catalase was measured by mixing catalase or the prolamin-based film for oral delivery containing catalase with 10 μM of H2O2 in a buffering solution of pH 7.0, and then monitoring the absorbance value of H2O2 at 240 nm. Further, in the prolamin-based film for oral delivery containing SOD, SOD activity was measured in accordance with the manufacturer's instructions by using SOD assay kit (SOD determination kit 19,160, Fluka, St. Louis, Mo.). Significance of results was determined via t-test between Zein film and other films containing SOD or catalase with p<0.05(*).
The function of Zein in protecting an anti-oxidative protein in the stomach condition was evaluated. In order to mimic the stomach condition, catalase or the prolamin-based film for oral delivery containing catalase was added into hydrochloric acid solution (50.1 mM HCl, pH 1.3) and left for 20 minutes. […] The activities of catalase and SOD were measured in the same manner as Example 2-1. Significance of results was determined via t-test between free enzymes and other delivery vehicles with p<0.05(*).

catalase [2] = test: Catalase activity by decomposition rate of H2O2 (absorbance at 240 nm), pH 7.0; format: biochemical; settings: free enzyme vs enzyme contained in film (FIG. 2, FIG. 3)
Experimental: as §1
The activities of catalases contained in the film for oral delivery as prepared in the Comparative Example 1-1 and Example 1-1 were compared. […] 1 mg of each formulation was taken to check the quantity of fluorescence which was then compared with the initially used quantity of fluorescence, resulting in the determination of the quantity of catalase in each formulation. The activity of catalase was evaluated at pH 7.0 as described in Example 2-1 by using fluorescent-unbound catalase, forming Zein Nanoparticle and Film, and taking 1 mg of each formulation. […]

catalase [3] = test: Catalase activity in the small intestine condition (pH 7.4, with or without trypsin); format: biochemical; settings: pH 7.4, 30 minutes
Experimental: as §1
In order to mimic the small intestine condition, test groups were divided into […] Trypsin-treated group and Trypsin-untreated group, respectively, while being left for 30 minutes in the environment of pH 7.4.
The activities of catalase and SOD were measured in the same manner as Example 2-1. Significance of results was determined via t-test between free enzymes and other delivery vehicles with p<0.05(*).

Human Skin Fibroblasts = settings: Silverberg et al. 2012; cited from earlier work

Row | Compound | relative activity of catalase in the stomach condition (catalase [1]) | relative activity of catalase (catalase [2]) | relative activity of catalase in the small intestine condition, Trypsin-treated (catalase [3]; Trypsin-treated group (FIG. 8, FIG. 9)) | relative activity of catalase at pH 7.4, Trypsin-untreated (catalase [3]; Trypsin-untreated group (FIG. 8)) | protection of cells from reactive oxygens (Human Skin Fibroblasts)
1 | catalase | lost almost completely its activity | approximately similar to those as contained in the Zein-based film | lost its activity significantly | maintained its activity | –
2 | Cn1c(=O)c2c(ncn2C)n(C)c1=O [Caffeine, caffeine] | – | – | – | – | able to protect cells from reactive oxygens
